Data set [1] addresses Sam68 STAR domain (UniProt Q07666 97-283). Kind of data set: fluorescence polarization; FP buffer, salt, pH and temperature not given in the material; SD from three independent experiments. As to conditions: protein: recombinant; chain copies: 2; label: 5' fluorescein. A general note: Fluorescence polarisation rises when a labelled molecule tumbles more slowly, as on binding a larger partner.

Data set [2] concerns the target T1, SLM2 (T-STAR) STAR domain (UniProt O75525 1-183).
T1 sequence: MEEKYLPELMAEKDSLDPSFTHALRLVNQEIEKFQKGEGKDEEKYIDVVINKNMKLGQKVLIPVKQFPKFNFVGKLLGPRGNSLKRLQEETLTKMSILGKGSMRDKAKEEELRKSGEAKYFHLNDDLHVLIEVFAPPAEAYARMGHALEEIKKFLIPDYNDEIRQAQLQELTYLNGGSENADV
The description is as above. As to conditions: protein: recombinant; chain copies: 2; label: 5' fluorescein.

Sam68 STAR domain, sequence (Q07666 97-283): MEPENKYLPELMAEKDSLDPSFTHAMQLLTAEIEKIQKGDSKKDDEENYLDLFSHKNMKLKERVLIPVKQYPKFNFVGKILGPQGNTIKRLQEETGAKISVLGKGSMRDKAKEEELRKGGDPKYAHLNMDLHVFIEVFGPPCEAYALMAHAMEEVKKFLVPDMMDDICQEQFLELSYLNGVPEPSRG

B1: Nrxn2 WT (ssRNA)
RNA: CCCAAUUAAUUAAUUAAUUAACUAACUAACUAACUUUAAAAACACGAUCUUAAA
Take B1: the figures for the Kd in data set [1] and in data set [2] were 2.9 ± 0.3 µM and 5.9 ± 0.9 µM, respectively.

B2: Nrxn2 mutant 7 (ssRNA)
RNA: CCCAAUUAAUUAAUUAAUUAACUAACCCACCCACCCUAAAAACACGAUCUUAAA
Consider B2, for which the Kd – broadly, the equilibrium constant for the complex coming apart – was determined as 3.4 ± 0.3 µM in data set [1] and 3.9 ± 0.4 µM in data set [2].
